Data as given in PMC5266791 (Cell Reports, 2016).

B1: (MBP)FANCC-FANCE-FANCF complex (complex)
chain 1: MAQDSVDLSCDYQFWMQKLSVWDQASTLETQQDTCLHVAQFQEFLRKMYEALKEMDSNTVIERFPTIGQLLAKACWNPFILAYDESQKILIWCLCCLINKEPQNSGQSKLNSWIQGVLSHILSALRFDKEVALFTQGLGYAPIDYYPGLLKNMVLSLASELRENHLNGFNTQRRMAPERVASLSRVCVPLITLTDVDPLVEALLICHGREPQEILQPEFFEAVNEAILLKKISLPMSAVVCLWLRHLPSLEKAMLHLFEKLISSERNCLRRIECFIKDSSLPQAACHPAIFRVVDEMFRCALLETDGALEIIATIQVFTQCFVEALEKASKQLRFALKTYFPYTSPSLAMVLLQDPQDIPRGHWLQTLKHISELLREAVEDQTHGSCGGPFESWFLFIHFGGWAEMVAEQLLMSAAEPPTALLWLLAFYYGPRDGRQQRAQTMVQVKAVLGHLLAMSRSSSLSAQDLQTVAGQGTDTDLRAPAQQLIRHLLLNFLLWAPGGHTIAWDVITLMAHTAEITHEIIGFLDQTLYRWNRLGIESPRSEKLARELLKELRTQV
chain 2: MATPDAGLPGAEGVEPAPWAQLEAPARLLLQALQAGPEGARRGLGVLRALGSRGWEPFDWGRLLEALCREEPVVQGPDGRLELKPLLLRLPRICQRNLMSLLMAVRPSLPESGLLSVLQIAQQDLAPDPDAWLRALGELLRRDLGVGTSMEGASPLSERCQRQLQSLCRGLGLGGRRLKSPQAPDPEEEENRDSQQPGKRRKDSEEEAASPEGKRVPKRLRCWEEEEDHEKERPEHKSLESLADGGSASPIKDQPVMAVKTGEDGSNLDDAKGLAESLELPKAIQDQLPRLQQLLKTLEEGLEGLEDAPPVELQLLHECSPSQMDLLCAQLQLPQLSDLGLLRLCTWLLALSPDLSLSNATVLTRSLFLGRILSLTSSASRLLTTALTSFCAKYTYPVCSALLDPVLQAPGTGPAQTELLCCLVKMESLEPDAQVLMLGQILELPWKEETFLVLQSLLERQVEMTPEKFSVLMEKLCKKGLAATTSMAYAKLMLTVMTKYQANITETQRLGLAMALEPNTTFLRKSLKAALKHLGP
chain 3: MESLLQHLDRFSELLAVSSTTYVSTWDPATVRRALQWARYLRHIHRRFGRHGPIRTALERRLHNQWRQEGGFGRGPVPGLANFQALGHCDVLLSLRLLENRALGDAARYHLVQQLFPGPGVRDADEETLQESLARLARRRSAVHMLRFNGYRENPNLQEDSLMKTQAELLLERLQEVGKAEAERPARFLSSLWERLPQNNFLKVIAVALLQPPLSRRPQEELEPGIHKSPGEGSQVLVHWLLGNSEVFAAFCRALPAGLLTLVTSRHPALSPVYLGLLTDWGQRLHYDLQKGIWVGTESQDVPWEELHNRFQSLCQAPPPLKDKVLTALETCKAQDGDFEVPGLSIWTDLLLALRSGAFRKRQVLGLSAGLSSV
B2: FANCB (natural protein)
chain: MTSKQAMSSNEQERLLCYNGEVLVFQLSKGNFADKEPTKTPILHVRRMVFDRGTKVFVQKSTGFFTIKEENSHLKIMCCNCVSDFRTGINLPYIVIEKNKKNNVFEYFLLILHSTNKFEMRLSFKLGYEMKDGLRVLNGPLILWRHVKAFFFISSQTGKVVSVSGNFSSIQWAGEIENLGMVLLGLKECCLSEEECTQEPSKSDYAIWNTKFCVYSLESQEVLSDIYIIPPAYSSVVTYVHICATEIIKNQLRISLIALTRKNQLISFQNGTPKNVCQLPFGDPCAVQLMDSGGGNLFFVVSFISNNACAVWKESFQVAAKWEKLSLVLIDDFIGSGTEQVLLLFKDSLNSDCLTSFKITDLGKINYSSEPSDCNEDDLFEDKQENRYLVVPPLETGLKVCFSSFRELRQHLLLKEKIISKSYKALINLVQGKDDNTSSAEEKECLVPLCGEEENSVHILDEKLSDNFQDSEQLVEKIWYRVIDDSLVVGVKTTSSLKLSLNDVTLSLLMDQAHDSRFRLLKCQNRVIKLSTNPFPAPYLMPCEIGLEAKRVTLTPDSKKEESFVCEHPSKKECVQIITAVTSLSPLLTFSKFCCTVLLQIMERESGNCPKDRYVVCGRVFLSLEDLSTGKYLLTFPKKKPIEHMEDLFALLAAFHKSCFQITSPGYALNSMKVWLLEHMKCEIIKEFPEVYFCERPGSFYGTLFTWKQRTPFEGILIIYSRNQTVMFQCLHNLIRILPINCFLKNLKSGSENFLIDNMAFTLEKELVTLSSLSSAIAKHESNFMQRCEVSKGKSSVVAAALSDRRENIHPYRKELQREKKKMLQTNLKVSGALYREITLKVAEVQLKSDFAAQKLSNL

What was measured:
[1] = target: FANCB-FANCL-FAAP100 complex (human, UniProt Q8NB91;Q9NW38;Q0VG06); assay: SEC
FANCB-FANCL-FAAP100 complex, sequence (Q9NW38 whole entry, chain 2 of 2): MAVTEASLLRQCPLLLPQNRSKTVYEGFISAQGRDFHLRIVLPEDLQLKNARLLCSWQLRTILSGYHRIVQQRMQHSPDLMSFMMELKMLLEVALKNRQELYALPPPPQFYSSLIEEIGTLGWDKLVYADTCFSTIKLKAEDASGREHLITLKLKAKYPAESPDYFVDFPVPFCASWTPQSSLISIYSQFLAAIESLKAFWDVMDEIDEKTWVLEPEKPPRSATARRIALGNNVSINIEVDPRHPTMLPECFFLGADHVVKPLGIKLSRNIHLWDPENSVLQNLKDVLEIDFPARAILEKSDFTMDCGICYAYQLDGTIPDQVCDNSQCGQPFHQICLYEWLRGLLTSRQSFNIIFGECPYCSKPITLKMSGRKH
FANCB-FANCL-FAAP100 complex, sequence (Q0VG06 whole entry, chain 3 of 2): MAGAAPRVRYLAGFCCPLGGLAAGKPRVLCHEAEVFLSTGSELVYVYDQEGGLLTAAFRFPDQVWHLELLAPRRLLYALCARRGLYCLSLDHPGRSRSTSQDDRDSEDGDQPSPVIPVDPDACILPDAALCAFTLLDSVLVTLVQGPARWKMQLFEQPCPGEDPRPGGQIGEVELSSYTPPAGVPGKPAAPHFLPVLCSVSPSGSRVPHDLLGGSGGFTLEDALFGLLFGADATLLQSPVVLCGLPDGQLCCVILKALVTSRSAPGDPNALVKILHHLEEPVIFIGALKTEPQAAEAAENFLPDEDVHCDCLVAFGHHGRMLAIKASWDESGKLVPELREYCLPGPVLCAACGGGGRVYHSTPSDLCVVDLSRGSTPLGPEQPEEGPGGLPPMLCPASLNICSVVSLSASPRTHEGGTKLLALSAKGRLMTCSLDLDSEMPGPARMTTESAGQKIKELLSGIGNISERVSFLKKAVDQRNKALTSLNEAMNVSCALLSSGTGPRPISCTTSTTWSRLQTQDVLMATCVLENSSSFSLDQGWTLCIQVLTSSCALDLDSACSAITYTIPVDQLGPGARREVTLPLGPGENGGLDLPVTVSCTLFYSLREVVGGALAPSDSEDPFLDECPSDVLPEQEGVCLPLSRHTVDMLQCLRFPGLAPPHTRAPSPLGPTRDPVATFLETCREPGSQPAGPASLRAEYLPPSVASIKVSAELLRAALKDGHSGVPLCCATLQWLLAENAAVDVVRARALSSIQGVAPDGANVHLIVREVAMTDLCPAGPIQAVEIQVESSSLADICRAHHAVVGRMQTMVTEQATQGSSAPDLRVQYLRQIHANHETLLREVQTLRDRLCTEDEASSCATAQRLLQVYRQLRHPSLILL

[2] = target: the molecule itself; assay: negative-stain single-particle EM

Binder	binding result [1]	stoichiometry N [2]
B1	binds	–
B2	–	2
